The target in experiment [1] is Encapsulin–SpyTag (Myxococcus xanthus | Streptococcus pyogenes) (UniProt Q1D6H4). The experiment can be described thus: SEC-MALS.
In experiment [2] the target is human ACE2-hFc fusion protein (human) (UniProt Q9BYF1). The experiment can be described thus: SPR.

These results are taken from PMC9961482.

As to “Encapsulin–SpyTag (from UniProt Q1D6H4 1-287)”, in experiment [1], the stoichiometry N was found to be 180.
In experiment [2], “Encapsulin–mRBD nanoparticle (from UniProt Q1D6H4;P0DTC2) (complex)” yielded a kon of 2.58e+06 M⁻¹ s⁻¹, a per cent reduction of binding after four weeks at 37 °C of 36 per cent and a per cent reduction of binding after two weeks at 37 °C of 1 per cent.
